This data set addresses T1, Rv1495 (MazF homolog) (Mycobacterium tuberculosis, UniProt P9WII5 1-105).
T1 sequence: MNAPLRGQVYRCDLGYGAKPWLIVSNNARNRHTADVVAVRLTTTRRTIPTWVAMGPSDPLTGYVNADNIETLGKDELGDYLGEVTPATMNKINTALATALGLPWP
Briefly: EMSA.

Regarding CAGTGAGCGAGCTTCCGCTTGACATCCCAATA (ssDNA) [32-mer TopA substrate oligonucleotide], the binding result is “no binding”.

(Values after paper PMC3001090.)
